Measured values reported in patent US9273304B2, “Inactivation method” (Thermo Fisher Scientific Baltics UAB, priority 2006, dated 2016).

Experiments:
[1] = target: Taq DNA polymerase (Thermus aquaticus, UniProt P19821); assay: Polymerase activity assay: incorporation of [3H]-dTTP into the polynucleotide adsorbed on DE-81 in 30 min at 70° C.; type: biochemical; conditions: aqueous solution
Procedure: The measure of the enzyme activity was incorporation of [^3H]-dTTP into polynucleotide fraction. One unit of polymerase activity is defined as the enzyme amount which incorporates 10 nmoles of deoxyribonucleotides into the polynucleotide adsorbed on DE-81 in 30 min at 70° C.
For activity assays, Taq DNA polymerase was diluted up to 4 u/ml with the dilution buffer of the following composition: 20 mM Tris-HCl (pH 8.8 at 25° C.), 1 mM EDTA, 1 mM DTT, and BSA (0.1 mg/ml). Reactions were carried out at 70° C. for 30 min with 5 μl of the diluted enzyme in 50 μl of the reaction buffer of the following composition: 67 mM Tris-HCl (pH 8.8 at 25° C.), 50 mM NaCl, 6.7 mM MgCl2, 1 mM DTT, and BSA (0.1 mg/ml). The reaction buffer was supplemented with 0.2 mM dNTP, [3H]-dTTP (0.4 MBq/ml) and 0.75 mM activated DNA from calf thymus.
Activity of the modified enzymes was measured either with the pre-incubation step, or without it, for 10 min at 95° C. in the pre-heating buffer of the following composition: 20 mM Tris-HCl (pH 8.25 at 25° C.), 100 mM KCl, 2 mM MgCl2, 0.5% Tween 20, 0.5% Nonidet P40, and 16% glycerol.
(§1) Aliquots (35 μl) of the enzyme solution were mixed with 2.25 μl aliquots of the N-ethoxycarbonyl-2,3-dimethylmaleinimide solutions described above resulting in the following molar ratios of Taq DNA polymerase to N-ethoxycarbonyl-2,3-dimethylmaleinimide: 1/1280 1/640, 1/320, 1/160, 1/110, 1/80, 1/40. The mixtures were incubated for 20 hours at 4° C. to modify the Taq DNA polymerase. Control samples, in which the enzyme was left unmodified (e.g., the ratio was 1/0), were obtained by mixing the Taq DNA polymerase with a 2.25 μl aliquot of DMF. These control samples were incubated under the same conditions as the modified ones.
The samples of the unmodified Taq DNA polymerase and the modified Taq DNA polymerases were diluted 250-fold in the pre-heating buffer (see Example 2) and activities of the modified enzyme were measured both before heat-reactivation and after it, as described in the Example 2. Activities of both inactivated and heat-reactivated DNA polymerases were determined as described in the Example 2, and the data were normalized to activity of the unmodified Taq DNA polymerase
Aliquots (20.6 μl) of the diluted enzyme solution were mixed with 1 μl of N-isobutoxycarbonyl-2,3-dimethylmaleinimide solutions described above resulting in different molar ratios of Taq DNA polymerase to N-isobutoxycarbonyl-2,3-dimethylmaleinimide (1/320, 1/160, 1/80 and 1/40). The mixtures were incubated 20 hours at 4° C. to modify the Taq DNA polymerase. Control samples, in which the enzyme was left unmodified (e.g., the ratio was 1/0), were obtained by mixing the Taq DNA polymerase with a 1 μl aliquot of DMF. These control samples were incubated under the same conditions as the modified ones. The heat-reactivation of the modified enzymes was performed as described in the Example 3.

[2] = target: T1, Pfu DNA polymerase (Pyrococcus furiosus, UniProt P61875); assay: Polymerase activity assay: incorporation of [3H]-dTTP into the polynucleotide adsorbed on DE-81 in 30 min at 50° C. or 72° C.; type: biochemical; conditions: aqueous solution
T1 construct: Native Pfu DNA polymerase was used at initial concentration of 1.065 mg/ml
T1 sequence (P61875 1-775): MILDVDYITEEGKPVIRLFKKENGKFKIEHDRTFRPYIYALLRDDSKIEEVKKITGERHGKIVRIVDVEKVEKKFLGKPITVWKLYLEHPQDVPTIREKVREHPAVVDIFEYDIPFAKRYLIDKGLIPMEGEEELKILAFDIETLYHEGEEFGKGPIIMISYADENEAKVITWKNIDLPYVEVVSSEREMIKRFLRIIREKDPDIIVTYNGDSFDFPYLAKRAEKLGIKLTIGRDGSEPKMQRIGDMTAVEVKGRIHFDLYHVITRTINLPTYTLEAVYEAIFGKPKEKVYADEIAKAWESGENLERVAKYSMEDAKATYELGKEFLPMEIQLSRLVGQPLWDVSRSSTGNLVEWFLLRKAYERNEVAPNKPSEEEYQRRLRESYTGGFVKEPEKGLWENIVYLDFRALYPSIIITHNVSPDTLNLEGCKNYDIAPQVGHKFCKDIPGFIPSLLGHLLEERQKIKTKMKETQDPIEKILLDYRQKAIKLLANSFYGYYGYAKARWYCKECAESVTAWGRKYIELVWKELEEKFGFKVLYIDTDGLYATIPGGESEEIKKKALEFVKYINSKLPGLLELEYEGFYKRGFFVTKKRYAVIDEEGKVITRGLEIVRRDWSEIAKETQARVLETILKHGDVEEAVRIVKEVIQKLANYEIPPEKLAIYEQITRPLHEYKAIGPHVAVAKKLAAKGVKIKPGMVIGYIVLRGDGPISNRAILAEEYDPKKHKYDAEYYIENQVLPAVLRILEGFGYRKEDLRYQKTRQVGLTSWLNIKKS
Procedure: as §1, with “A set of N-ethoxycarbonyl-2,3-dimethylmaleinimide solutions (72 mM, 18 mM) was prepared by serial dilutions of the 720 mM stock in N,N dimethylformamide (DMF). Aliquots” for “Aliquots”, “(25” for “(35”, “1” for “2.25”, “Pfu” for “Taq”, “1/800, 1/200.” for “1/1280 1/640, 1/320, 1/160, 1/110, 1/80, 1/40.”
The samples of the unmodified Pfu DNA polymerase and the modified Pfu DNA polymerases were diluted in the pre-heating buffer (see Example 2) either 9-fold for measurements at 50° C., or 24-fold for measurements at 72° C. (see Example 2). Activities of the modified enzymes were measured either with the pre-incubation step, or without it, for 10 min at 95° C.
For activity assays, Pfu DNA polymerase was diluted up to 11 u/ml (91 u/ml for measurements at 50° C.) in the dilution buffer (see Example 2). Reactions were carried out either at 50° C., or at 72° C. for 30 min. Aliquots (5 μl) of the diluted enzyme were added to 50 μl of the reaction buffer of the following composition: 20 mM Tris-HCl (pH 8.8 at 25° C.), 10 mM (NH4)2SO4, 10 mM KCl, 2 mM MgCl2, 0.1% Triton X-100, and BSA (0.1 mg/ml) supplemented with, 0.2 mM dNTP, [3H]-dTTP (0.4 MBq/ml) and 0.75 mM activated DNA from calf thymus.

[3] = molar ratio Taq DNA polymerase/N-iso-butoxycarbonyl-2,3-dimethylmaleinimide 1/40
[4] = molar ratio Taq DNA polymerase/N-iso-butoxycarbonyl-2,3-dimethylmaleinimide 1/80
[5] = molar ratio Taq DNA polymerase/N-iso-butoxycarbonyl-2,3-dimethylmaleinimide 1/160
[6] = molar ratio Taq DNA polymerase/N-iso-butoxycarbonyl-2,3-dimethylmaleinimide 1/320
[7] = molar ratio Pfu/N-etoxycarbonyl-2,3-dimethylmaleinimide 1/200
[8] = molar ratio Pfu/N-etoxycarbonyl-2,3-dimethylmaleinimide 1/800

Chain of Taq DNA polymerase (P19821 whole entry): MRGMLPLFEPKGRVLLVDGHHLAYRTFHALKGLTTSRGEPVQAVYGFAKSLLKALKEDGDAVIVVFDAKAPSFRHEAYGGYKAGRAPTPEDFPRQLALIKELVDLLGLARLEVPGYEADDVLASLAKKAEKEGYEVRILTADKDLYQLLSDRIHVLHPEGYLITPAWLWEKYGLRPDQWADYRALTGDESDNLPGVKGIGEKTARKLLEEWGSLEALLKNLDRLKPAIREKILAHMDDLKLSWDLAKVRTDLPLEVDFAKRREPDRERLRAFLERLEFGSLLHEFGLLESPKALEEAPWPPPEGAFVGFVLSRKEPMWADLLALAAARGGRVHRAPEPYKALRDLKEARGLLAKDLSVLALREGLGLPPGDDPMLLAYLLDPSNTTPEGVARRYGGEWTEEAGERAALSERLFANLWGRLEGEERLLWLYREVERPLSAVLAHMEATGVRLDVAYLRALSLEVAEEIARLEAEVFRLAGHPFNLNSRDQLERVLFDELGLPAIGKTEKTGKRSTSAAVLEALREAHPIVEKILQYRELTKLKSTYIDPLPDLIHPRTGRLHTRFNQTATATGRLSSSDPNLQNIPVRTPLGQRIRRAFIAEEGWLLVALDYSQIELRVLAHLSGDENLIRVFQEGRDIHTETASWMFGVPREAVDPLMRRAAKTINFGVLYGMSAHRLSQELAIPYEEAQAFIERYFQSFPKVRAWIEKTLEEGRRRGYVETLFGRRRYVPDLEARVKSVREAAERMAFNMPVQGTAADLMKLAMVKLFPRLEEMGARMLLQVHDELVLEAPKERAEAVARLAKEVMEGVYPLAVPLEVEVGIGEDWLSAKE

For “Taq DNA polymerase treated with N-iso-butoxycarbonyl-2,3-dimethylmaleinimide: Recombinant Taq DNA polymerase modified with N-isobutoxycarbonyl-2,3-dimethylmaleinimide in aqueous solution, molar ratios 1/40 to 1/320”, the “Activity at 70° C. (%) After 10 min. preheating at 95° C.” value [1, 3] was ~90%, the “Activity at 70° C. (%) Without preheating at 95° C.” value [1, 3] was ~50% and the “Activity at 70° C. (%) After 10 min. preheating at 95° C.” value [1, 4] was ~100%. For the same molecule, the “Activity at 70° C. (%) Without preheating at 95° C.” value [1, 4] was ~40%, the “Activity at 70° C. (%) After 10 min. preheating at 95° C.” value [1, 5] was ~80% and the “Activity at 70° C. (%) Without preheating at 95° C.” value [1, 5] was ~30%. For the same molecule, the “Activity at 70° C. (%) After 10 min. preheating at 95° C.” value [1, 6] was ~40% and the “Activity at 70° C. (%) Without preheating at 95° C.” value [1, 6] was ~10%.

B1: Pfu DNA polymerase modified with N-etoxycarbonyl-2,3-dimethylmaleinimide: Native Pfu DNA polymerase reversibly inactivated with N-ethoxycarbonyl-2,3-dimethylmaleinimide, molar ratios 1/200 and 1/800 (protein, UniProt P61875 1-775, looked up)
DNA polymerase: MILDVDYITEEGKPVIRLFKKENGKFKIEHDRTFRPYIYALLRDDSKIEEVKKITGERHGKIVRIVDVEKVEKKFLGKPITVWKLYLEHPQDVPTIREKVREHPAVVDIFEYDIPFAKRYLIDKGLIPMEGEEELKILAFDIETLYHEGEEFGKGPIIMISYADENEAKVITWKNIDLPYVEVVSSEREMIKRFLRIIREKDPDIIVTYNGDSFDFPYLAKRAEKLGIKLTIGRDGSEPKMQRIGDMTAVEVKGRIHFDLYHVITRTINLPTYTLEAVYEAIFGKPKEKVYADEIAKAWESGENLERVAKYSMEDAKATYELGKEFLPMEIQLSRLVGQPLWDVSRSSTGNLVEWFLLRKAYERNEVAPNKPSEEEYQRRLRESYTGGFVKEPEKGLWENIVYLDFRALYPSIIITHNVSPDTLNLEGCKNYDIAPQVGHKFCKDIPGFIPSLLGHLLEERQKIKTKMKETQDPIEKILLDYRQKAIKLLANSFYGYYGYAKARWYCKECAESVTAWGRKYIELVWKELEEKFGFKVLYIDTDGLYATIPGGESEEIKKKALEFVKYINSKLPGLLELEYEGFYKRGFFVTKKRYAVIDEEGKVITRGLEIVRRDWSEIAKETQARVLETILKHGDVEEAVRIVKEVIQKLANYEIPPEKLAIYEQITRPLHEYKAIGPHVAVAKKLAAKGVKIKPGMVIGYIVLRGDGPISNRAILAEEYDPKKHKYDAEYYIENQVLPAVLRILEGFGYRKEDLRYQKTRQVGLTSWLNIKKS
modifications: modified with dimethylmaleinimide reagent
With B1 the “Activity at 50° C. (%) After 10 min. preheating at 95° C.” value [2, 7] was ~100%, the “Activity at 50° C. (%) Without preheating at 95° C.” value [2, 7] was ~20% and the “Activity at 72° C. (%) After 10 min. preheating at 95° C.” value [2, 7] was ~100%. The “Activity at 50° C. (%) After 10 min. preheating at 95° C.” value [2, 8] was ~100%, the “Activity at 50° C. (%) Without preheating at 95° C.” value [2, 8] was ~0% and the “Activity at 72° C. (%) After 10 min. preheating at 95° C.” value [2, 8] was ~90%.
